Laboratory results taken from patent publication US20240067721A1 (UNIVERSITY OF BIRMINGHAM, published 2024).

B1: Nanobody 35 (Nb35), with C-terminal HA and His tags (VHH)
VHH: QVQLQESGGGLVQAGGSLRLSCAASGVTFDSAAMAWFRQVPGKEREFVAVISTESGGRTDHADSVKGRFLISRDNARHMVYLQMNSLNPEDTAVYYCASSLLYCSASGCYANRDSYDYWGQGTQVTVSSAAAYPYDVPDYGSHHHHHH
B2: Nanobody 19 (Nb19) (VHH)
VHH: QVQLQESGGGLVQAGGSLRLSCAASGRTFSSDAMGWFRQAPGKEREFVAAIRWSGGSTYYADSVKGRFTISRGNAKNTVYLQMNSLKPEDTAVYYCASSLLNSYYPPDHTSYEYDYWGQGTQVTVSSAAAYPYDVPDYGSHHHHHH
B3: Nanobody 25 (Nb25) (VHH)
VHH: QVQLQESGGGLVQPGGSLRLSCAASGFTLDNYAIGWFRQAPGKEREGVSCISSSDGRTYYADSVKGRFTISRDNAKNTMYLQMNSLKPEDTAVYYCATSPLYSDSDRCIWEEYDYWGQGTQVTVSSAAAYPYDVPDYGSHHHHHH
B4: Nanobody 22 (Nb22) (VHH)
VHH: QVQLQESGGGLVQAGGSLRLSCAPSGRTISSVDVGWFRQAPGKEREFVAHVTWSGGSTYAADSVKGRFTVSRDNAKNTVYLQMNSLKPEDTAVYYCAAALNGAFRDSWYPALWDEYDYWGQGTQVTVSSAAAYPYDVPDYGSHHHHHH
B5: Nanobody 1 (Nb1) (VHH)
VHH: QVQLQESGGGLVQAGGSLRLSCASSGFTFSGYQLAWFRHVAPGKEREFVAAIRWSGGITWYADSVKGRFTISRDNAKNTMYLQMNSLKPEETAVYYCAASPLYSNNYLLPDNYDYWGQGTQVTVSSAAAYPYDVPDYGSHHHHHH
B6: Nanobody 33 (Nb33) (VHH)
VHH: QVQLQESGGGLVQAGDSLRLSCAASGRTFSSYVMGWFRQAPGKEREFVAAISWSGGSTYYADSVKGRFTISRDNAKNTVYLQMNSLKPEDTAVYYCAAADPPSFYSDYDWPRDHEYDYWGQGTQVTVSSAAAYPYDVPDYGSHHHHHH
B7: Nanobody 44 (Nb44) (VHH)
VHH: QVQLQESGGGLVQPGGALRLSCAASGFTLDYYAIGWFRQAPGKEREAVSCISSSDGSTYYADSVKGRFTISRDNAKNTVYLQMNSLKPEDTAVYYCATDPFYSDINCKSYEYAYWGQGTQVTVSSAAAYPYDVPDYGSHHHHHH
B8: Nanobody 28 (Nb28) (VHH)
VHH: QVQLQESGGGLVQAGDSLRLSCAASGTYSMGWFRQAPGKEREFVAAISWSGGRTNYADSVKGRFTISRDNAKNTVYLQMNSLKPEDTAVYYCSAAIYDNVSSRIGSYTYWGQGTQVTVSS
B9: Nanobody 5 (Nb5) (VHH)
VHH: QVQLQESGGGLVQPGGSLRLSCAASGFTLDSHTIGWFRQAPGKEREGVSGINSSDGSTYYADSVKGRFTISRDNAKNTVYLQMDSLKVEDTAVYYCATTPFSLRGPTWVTPDEFDYWGQGTQVTVSSAAAYPYDVPDYGSHHHHHH

Assays:
[1] = biological target: full length GPVI on transfected DT40 cells (with FcR-γ chain) (UniProt Q9HCN6); experiment: cell-based or functional assay
[2] = biological target: T1, GPVI on human washed platelets (human, UniProt Q9HCN6 21-339); experiment: cell-based or functional assay
T1 sequence (looked up): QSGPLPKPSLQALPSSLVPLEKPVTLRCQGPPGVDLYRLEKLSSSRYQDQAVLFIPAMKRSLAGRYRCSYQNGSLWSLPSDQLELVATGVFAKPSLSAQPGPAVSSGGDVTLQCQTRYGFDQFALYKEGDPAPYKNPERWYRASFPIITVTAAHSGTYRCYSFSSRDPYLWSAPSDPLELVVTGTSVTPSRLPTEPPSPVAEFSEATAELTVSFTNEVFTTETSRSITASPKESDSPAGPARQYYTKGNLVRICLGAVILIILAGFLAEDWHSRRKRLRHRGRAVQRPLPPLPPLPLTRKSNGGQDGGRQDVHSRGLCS

[3] = biological target: T2, recombinant GPVI-Fc (dimeric; D1 and D2 domains of GPVI fused to the Fc domain from IgG) (human, UniProt Q9HCN6 22-203); experiment: solid-phase binding assay, displacement of GPVI-Fc (100 nM) from a collagen surface
T2 construct: range 22-203; also called GPVI-Fcγ; dimeric GPVI; not shown: Factor Xa cleavable junction and Fc domain from IgG (Sigplg+ vector)
T2 sequence (looked up): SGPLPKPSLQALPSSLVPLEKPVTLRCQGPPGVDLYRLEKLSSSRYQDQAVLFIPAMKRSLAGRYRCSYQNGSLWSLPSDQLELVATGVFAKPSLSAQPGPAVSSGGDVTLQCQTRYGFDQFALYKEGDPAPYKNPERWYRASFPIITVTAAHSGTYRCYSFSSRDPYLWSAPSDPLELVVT

[4] = biological target: T3, full length GPVI on transfected DT40 cells (with FcR-γ chain) (UniProt Q9HCN6 21-339); experiment: cell-based or functional assay
T3 sequence (looked up): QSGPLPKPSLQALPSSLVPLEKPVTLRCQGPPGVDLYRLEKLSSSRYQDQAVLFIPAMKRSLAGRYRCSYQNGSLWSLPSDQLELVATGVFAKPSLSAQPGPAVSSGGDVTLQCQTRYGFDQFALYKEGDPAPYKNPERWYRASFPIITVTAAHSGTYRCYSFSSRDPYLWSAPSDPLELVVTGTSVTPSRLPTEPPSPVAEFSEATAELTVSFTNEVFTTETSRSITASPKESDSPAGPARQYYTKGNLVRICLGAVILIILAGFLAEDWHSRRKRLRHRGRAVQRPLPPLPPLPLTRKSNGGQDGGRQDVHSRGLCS

[5] = biological target: T2, recombinant GPVI-Fc (dimeric; D1 and D2 …); experiment: solid-phase binding assay: GPVI-Fc coated surface, nanobody 100 nM per the legend (1 µM per paragraph 122), anti-His HRP, Fc-surface signal subtracted, normalised to Nb35 [cont) b]
Protocol: FIG. 1. […] Results were plotted as a percentage of total signalling in the presence of collagen only. Dotted lines represent 100, 60 and 20% signalling levels. Data represent mean values of three experiments performed in triplicate±standard deviation. b) Surface binding assay of one nanobody (100 nM) from each family binding to a GPVI-Fc coated-surface. All the binding results have been normalised to Nb35 which gave the highest readout. Binding of each nanobody to the Fc domain-coated surface was tested and subtracted from the GPVI-Fc readings. Binding was detected using HRP conjugated anti-His antibody. The average binding of all the nanobodies to BSA represents a non-specific binding control. Data represent mean values of three experiments±standard deviation.
The recombinant GPVI used for immunisation and testing consisted of the extracellular D1 and D2 domains fused with the Fc domain from IgG. Immunisation with GPVI-Fc yielded 54 distinct nanobody sequences. The Fc domain was used to test whether the nanobodies recognise this region. The 54 nanobodies were categorized into 33 distinct binding classes on the basis of their complementary determining loop (CDR) 3 regions, which is the region that confers ligand specificity. Nanobodies (1 μM) from each binding class were tested for their ability to recognise a recombinant GPVI-Fc coated surface (FIG. 1b). The degree of nanobody binding varied between classes and could be categorised into strong (>50%), moderate (>20%) and weak binders (<20%). Strong binders included Nb2, 21, 35 and 52. Moderate binders included Nb7, 18, 28 and 54. All other nanobodies were considered to be weak binders.

Molecule | inhibition of collagen-stimulated NFAT reporter activity (nanobody 100 nM, collagen 10 µg/ml) [4] [%] | binding result [5] | also measured
collagen (Horm collagen I, fibrillar) (ligand) |  |  | fold increase in NFAT activity (luciferase reporter) [1]: 8.3 fold
B1 |  |  | IC50, inhibition of washed platelet aggregation to CRP (10 µg/ml) [2]: 1 nM; IC50, inhibition of washed platelet aggregation to collagen (5 µg/mL) [2]: 115 nM; IC50 [3]: 39 nM
B2 | > 40 | binds | 
B3 | > 40 | binds | 
B4 | > 40 | binds | 
B5 | > 40 |  | 
B6 | > 40 | binds | 
B7 | > 40 | binds | 
B8 |  | binds | 
B9 | > 40 |  | 
